From patent US20220340678A1

Legend:
[1] = biological target: biotinylated human uPAR (human), Q03405; experiment: BLI (Octet) competition on biotinylated human uPAR; competitor (first antibody): ATN-368 (ATN-658)
[2] = biological target: biotinylated human uPAR (human), Q03405; experiment: BLI (Octet) competition on biotinylated human uPAR; competitor (first antibody): M5
[3] = biological target: human uPAR expressed on HEK293 cells (human), Q03405; experiment: flow cytometry, HEK293 cells expressing human uPAR, 100 nM uPA present
[4] = biological target: biotinylated human uPAR (human), Q03405; experiment: BLI (Octet) competition on biotinylated human uPAR; competitor (first antibody): M1
[5] = biological target: biotinylated human uPAR (human), Q03405; experiment: BLI (Octet) on biotinylated human uPAR; row 'None': no first antibody

B1: ATN-658 (antibody)
chain 1: not shown
chain 2: VQLQESGPELVKTGASVKISCKASGYSFTSYYMHWVKQSHGKSLEWIGEINPYNGGASYNQKIKGRATFTVDTSSRTAYMQFNSLTSEDSAVYYCARSIYGHSVLDYWGQGTTVTVS
modifications: not checked
response in competition assay [1]: -0.0274
response in competition assay [2]: 0.387
EC50 [3]: 3.99 nM
response in competition assay [4]: -0.0144
response in competition assay [5]: 0.33
